Experimental data from patent publication US20160347802A1.
Blank lines part the entries; values can stand above or below the substance they belong to.

Experiments:
[1] = target: Islr2, AVEXIS protein; experiment: method not stated; the filers' own unpublished determination ('in preparation'), used to calibrate the AVEXIS screen
[2] = target: human Netrin-G1, AVEXIS protein (human) (UniProt Q9Y2I2); experiment: AVEXIS, prey on bait NTNG1; white = No binding
[3] = target: human Netrin-4, AVEXIS protein (human) (UniProt Q9HB63); experiment: AVEXIS, prey on bait NTN4; white = No binding
[4] = target: Matn4 ECD, mono-biotinylated bait protein (positive control); experiment: AVEXIS, prey on bait Matn4 (+), positive control for the prey; dark = Binding
[5] = target: human Netrin-3, AVEXIS protein (human) (UniProt O00634); experiment: AVEXIS, prey on bait NTN3; white = No binding
[6] = target: human Netrin1, recombinant AVEXIS protein (biotinylated when immobilised) (human) (UniProt O95631); experiment: AVEXIS, prey on bait NTN1; dark = Binding
[7] = target: human DRAXIN 21 amino acid Netrin binding fragment, AVEXIS prey or bait protein (human); experiment: AVEXIS, prey on bait DRAXIN 21aa; white = No binding
[8] = target: biotinylated recombinant human UNC5B (human) (UniProt Q8IZJ1); experiment: AVEXIS, prey on bait UNC5B; white = No binding
[9] = target: biotinylated recombinant human DCC (human) (UniProt P43146); experiment: AVEXIS, prey on bait DCC; white = No binding
[10] = target: human DRAXIN, AVEXIS prey or bait protein (human) (UniProt Q8NBI3); experiment: AVEXIS, prey on bait DRAXIN; white = No binding
[11] = target: human Netrin-G2, AVEXIS protein (human) (UniProt Q96CW9); experiment: AVEXIS, prey on bait NTNG2; white = No binding
[12] = target: zebrafish Netrin1a, AVEXIS bait or prey protein (zebrafish); experiment: AVEXIS, prey on bait zNetrin1a, lower value; grey = Weak binding
[13] = target: zebrafish Netrin1a, AVEXIS bait or prey protein (zebrafish); experiment: AVEXIS, prey on bait zNetrin1a, upper value; grey = Weak binding
[14] = target: zebrafish DraxinA, AVEXIS prey or bait protein (zebrafish) (UniProt Q4V9H3); experiment: AVEXIS, prey on bait zDraxinA, upper value; black = Binding
[15] = target: human DRAXIN, AVEXIS prey or bait protein (human) (UniProt Q8NBI3); experiment: AVEXIS, prey on bait hDRAXIN, lower value; black = Binding
[16] = target: zebrafish Netrin1a, AVEXIS bait or prey protein (zebrafish); experiment: AVEXIS, prey on bait zNetrin1a, upper value; white = No binding
[17] = target: human Netrin1, recombinant AVEXIS protein (biotinylated when immobilised) (human) (UniProt O95631); experiment: AVEXIS, prey on bait hNETRIN1, lower value; white = No binding
[18] = target: zebrafish DraxinA, AVEXIS prey or bait protein (zebrafish) (UniProt Q4V9H3); experiment: AVEXIS, prey on bait zDraxinA, lower value; black = Binding
[19] = target: human DRAXIN, AVEXIS prey or bait protein (human) (UniProt Q8NBI3); experiment: AVEXIS, prey on bait hDRAXIN, upper value; black = Binding
[20] = target: zebrafish DraxinB, AVEXIS protein (zebrafish); experiment: AVEXIS, prey on bait zDraxinB, upper value; black = Binding
[21] = target: zebrafish Netrin1a, AVEXIS bait or prey protein (zebrafish); experiment: AVEXIS, prey on bait zNetrin1a, lower value; white = No binding
[22] = target: human Netrin1, recombinant AVEXIS protein (biotinylated when immobilised) (human) (UniProt O95631); experiment: AVEXIS, prey on bait hNETRIN1, upper value; white = No binding
[23] = target: zebrafish DraxinB, AVEXIS protein (zebrafish); experiment: AVEXIS, prey on bait zDraxinB, lower value; black = Binding

human DRAXIN, AVEXIS prey or bait protein (human), sequence (Q8NBI3 26-349): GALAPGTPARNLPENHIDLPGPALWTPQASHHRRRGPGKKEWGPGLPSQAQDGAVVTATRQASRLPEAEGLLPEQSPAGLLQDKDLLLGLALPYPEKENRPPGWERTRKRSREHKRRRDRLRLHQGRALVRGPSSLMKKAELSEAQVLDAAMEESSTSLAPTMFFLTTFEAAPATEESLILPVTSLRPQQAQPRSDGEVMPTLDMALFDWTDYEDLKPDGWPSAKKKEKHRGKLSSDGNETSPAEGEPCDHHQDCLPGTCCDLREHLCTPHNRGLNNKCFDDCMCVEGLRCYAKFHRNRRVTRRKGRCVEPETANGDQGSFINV
zebrafish DraxinA, AVEXIS prey or bait protein (zebrafish), sequence (Q4V9H3 other isoform, or with tags, fused parts or gaps): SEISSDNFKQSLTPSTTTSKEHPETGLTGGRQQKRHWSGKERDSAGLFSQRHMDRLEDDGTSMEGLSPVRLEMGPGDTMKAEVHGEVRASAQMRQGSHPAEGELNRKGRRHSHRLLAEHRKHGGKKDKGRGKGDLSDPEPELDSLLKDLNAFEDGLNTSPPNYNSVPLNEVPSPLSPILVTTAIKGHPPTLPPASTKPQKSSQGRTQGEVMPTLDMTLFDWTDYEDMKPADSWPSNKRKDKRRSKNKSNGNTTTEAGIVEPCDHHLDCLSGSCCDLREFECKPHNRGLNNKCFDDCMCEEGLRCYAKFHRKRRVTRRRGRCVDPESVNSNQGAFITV
human DRAXIN 21 amino acid Netrin binding fragment, AVEXIS prey or bait protein (human), sequence (peptide, as listed by the source): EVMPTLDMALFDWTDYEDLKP
human Netrin-G1, AVEXIS protein (human), sequence (Q9Y2I2 29-510): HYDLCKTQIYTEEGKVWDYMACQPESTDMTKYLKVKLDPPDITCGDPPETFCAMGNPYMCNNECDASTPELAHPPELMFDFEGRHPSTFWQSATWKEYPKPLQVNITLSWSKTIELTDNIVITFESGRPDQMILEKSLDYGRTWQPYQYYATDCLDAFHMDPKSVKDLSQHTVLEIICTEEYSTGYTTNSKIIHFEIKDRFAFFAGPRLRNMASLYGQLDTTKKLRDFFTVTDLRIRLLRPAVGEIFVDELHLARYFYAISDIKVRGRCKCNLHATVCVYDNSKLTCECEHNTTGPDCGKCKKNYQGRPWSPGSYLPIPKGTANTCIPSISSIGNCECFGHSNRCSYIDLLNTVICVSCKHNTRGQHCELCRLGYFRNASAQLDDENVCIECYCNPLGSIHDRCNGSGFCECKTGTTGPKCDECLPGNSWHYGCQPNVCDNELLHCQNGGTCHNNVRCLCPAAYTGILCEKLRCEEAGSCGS
human Netrin-G2, AVEXIS protein (human), sequence (Q96CW9 18-507): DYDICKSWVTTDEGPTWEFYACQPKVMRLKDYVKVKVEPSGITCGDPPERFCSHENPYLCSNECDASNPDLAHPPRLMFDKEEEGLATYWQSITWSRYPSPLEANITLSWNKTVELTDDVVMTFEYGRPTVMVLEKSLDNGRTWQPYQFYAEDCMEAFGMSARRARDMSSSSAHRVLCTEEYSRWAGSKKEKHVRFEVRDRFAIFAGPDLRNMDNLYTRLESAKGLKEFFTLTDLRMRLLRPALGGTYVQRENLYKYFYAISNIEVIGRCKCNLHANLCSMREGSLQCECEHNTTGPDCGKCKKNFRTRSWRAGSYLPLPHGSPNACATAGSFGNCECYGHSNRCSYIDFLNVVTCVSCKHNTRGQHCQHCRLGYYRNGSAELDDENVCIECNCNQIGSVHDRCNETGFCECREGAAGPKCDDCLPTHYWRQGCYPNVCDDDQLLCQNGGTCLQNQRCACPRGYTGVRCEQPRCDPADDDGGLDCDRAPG
human Netrin-4, AVEXIS protein (human), sequence (Q9HB63 19-628): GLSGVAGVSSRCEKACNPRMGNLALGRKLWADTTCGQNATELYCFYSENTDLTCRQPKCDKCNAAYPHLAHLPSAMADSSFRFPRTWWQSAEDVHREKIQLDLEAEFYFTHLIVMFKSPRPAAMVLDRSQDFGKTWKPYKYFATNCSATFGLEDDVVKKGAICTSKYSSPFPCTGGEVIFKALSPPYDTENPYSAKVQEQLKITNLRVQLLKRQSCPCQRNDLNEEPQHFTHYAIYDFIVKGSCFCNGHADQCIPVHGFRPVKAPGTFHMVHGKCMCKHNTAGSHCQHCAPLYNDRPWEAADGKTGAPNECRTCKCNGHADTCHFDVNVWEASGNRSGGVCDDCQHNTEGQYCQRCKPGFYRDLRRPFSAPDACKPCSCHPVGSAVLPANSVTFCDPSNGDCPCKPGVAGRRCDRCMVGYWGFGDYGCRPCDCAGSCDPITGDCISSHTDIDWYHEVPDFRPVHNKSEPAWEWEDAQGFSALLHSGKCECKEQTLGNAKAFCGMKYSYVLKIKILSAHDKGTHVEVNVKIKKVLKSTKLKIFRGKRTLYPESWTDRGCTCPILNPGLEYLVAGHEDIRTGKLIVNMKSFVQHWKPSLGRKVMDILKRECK
human Netrin-3, AVEXIS protein (human), sequence (O00634 28-580): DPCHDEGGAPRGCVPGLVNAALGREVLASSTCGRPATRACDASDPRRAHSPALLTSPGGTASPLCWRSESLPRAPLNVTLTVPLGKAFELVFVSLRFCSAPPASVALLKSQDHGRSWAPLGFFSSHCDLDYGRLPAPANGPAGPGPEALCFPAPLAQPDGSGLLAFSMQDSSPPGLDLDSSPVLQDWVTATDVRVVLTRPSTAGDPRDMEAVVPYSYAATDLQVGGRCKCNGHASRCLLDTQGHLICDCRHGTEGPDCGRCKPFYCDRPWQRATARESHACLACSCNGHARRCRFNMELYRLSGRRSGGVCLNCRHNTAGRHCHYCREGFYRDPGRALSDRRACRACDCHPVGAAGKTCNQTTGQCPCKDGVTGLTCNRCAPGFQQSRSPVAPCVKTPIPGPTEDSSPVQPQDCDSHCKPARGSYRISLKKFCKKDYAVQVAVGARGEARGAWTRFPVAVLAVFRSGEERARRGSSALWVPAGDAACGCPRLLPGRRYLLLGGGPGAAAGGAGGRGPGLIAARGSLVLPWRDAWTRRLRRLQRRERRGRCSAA
human Netrin-3, AVEXIS protein, O00634 28-580 (ligand; other documents disagree on this pair), sequence (O00634 28-580): as above

- A486nm [9]: 0.064
Substance: biotinylated recombinant human UNC5B (from UniProt Q8IZJ1 27-377) (receptor)

- A486nm [9]: 0.067
Substance: human Netrin-3, AVEXIS protein (from UniProt O00634 28-580) (ligand)

- A486nm [12]: 0.084
- A486nm [13]: 0.103
Substance: zebrafish DraxinB, AVEXIS protein (ligand)

The remaining lines, values behind:

Substance: Vasn (Slit-like2), AVEXIS protein
- Kd [1]: 12 µM
- half-life (t½) [1]: 0.16 s

Substance: biotinylated recombinant human DCC (from UniProt P43146 26-1097) (receptor)
- A486nm [2]: 0.065
- A486nm [3]: 0.064
- A486nm [4]: 0.278
- A486nm [5]: 0.076
- A486nm [6]: 0.377
- A486nm [7]: 0.062
- A486nm [8]: 0.062
- A486nm [9]: 0.065
- A486nm [10]: 0.064
- A486nm [11]: 0.061

Substance: human Netrin-3, AVEXIS protein, O00634 28-580 (ligand; other documents disagree on this pair)
- A486nm [8]: 0.066

Substance: zebrafish Netrin1a, AVEXIS bait or prey protein (ligand)
- A486nm [14]: 0.323
- A486nm [15]: 0.249
- A486nm [16]: 0.064
- A486nm [17]: 0.059
- A486nm [18]: 0.276
- A486nm [19]: 0.136
- A486nm [20]: 0.235
- A486nm [21]: 0.063
- A486nm [22]: 0.064
- A486nm [23]: 0.174
